This note sets out measurements from paper PMC5734611 (Nature nanotechnology, 2016).

The data set deals with the molecule itself. The data set is described as follows: high-speed atomic force microscopy.

B1: bacterial glycerol uptake facilitator GlpF (natural protein)
chain: MSQTSTLKGQSIAEFLGTGLLIFFGVGSVAALKVAGASFGQWEISVIWGLGVAMAIYLTAGVSGAHLNPAVTIALWLFASFDKRKVIPFIVSQVAGAFSAAALVYGLYYNLFFDFEQTHHIVRGSVESVDLAGTFSTYPNPHINFVQAFAVEMVITAILMGLILALTDDGNGVPRGPLAPLLIGLLIAVIGASMGPLTGFAMNPARDFGPKVFAWLAGWGNVAFTGGRDIPYFLVPLFGPIVGAIVGAFAYRKLIGRHLPCDICVVEEKETTTPSEQKASL
modifications: Atto 488 maleimide on cysteines (C261 and C264)
As for B1, the stoichiometry N (commonly a count of units in the complex or per binding partner) amounted to 4.
